Results on 1 molecule are retold here after US20160207996A1 (ARGEN X N V, published 2016).

One assay has as its target T1, hNav1.5-loopA3-llFc (human).
T1 construct: also called Nav1.5 extracellular loop A3 llamaFc chimera
T1 chain: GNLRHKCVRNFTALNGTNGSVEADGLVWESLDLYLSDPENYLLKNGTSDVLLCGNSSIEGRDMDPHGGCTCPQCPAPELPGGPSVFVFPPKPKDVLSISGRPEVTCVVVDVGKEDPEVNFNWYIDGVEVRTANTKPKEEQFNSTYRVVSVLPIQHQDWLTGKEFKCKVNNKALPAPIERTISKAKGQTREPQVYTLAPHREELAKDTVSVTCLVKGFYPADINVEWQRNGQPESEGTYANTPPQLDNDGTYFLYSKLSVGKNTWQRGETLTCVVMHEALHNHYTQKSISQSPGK
In words: binding ELISA on coated hNav1.5 loop A3-llama Fc, OD620. The text has this:
(§1) The therapeutic potency of an anti-hNav1.7 antibody will highly depend on the lack of binding to other Nay family members. Of particular interest is hNav1.5, which is expressed on cardiac muscle cells. As such, cross-reactive binding of hNav1.7 antibodies to hNav1.5 could lead to heart failure. To assay the specificity of the mAbs derived from DNA immunization for hNav1.7, the corresponding loopA3 and loopB1-C1-D1 sequences of hNav1.5 were cloned as llamaFc chimera and cross-reactivity was determined using a binding ELISA (FIG. 8). All clones, except clone 9A6 and 9H4, show no cross-reactivity to hNav1.5. In addition, cross reactivity for hNav1.2 was tested for the loopA3-binding clones 8A7 and 8B6 using hNav1.2 and hNav1.7 derived monomeric, GST-tagged loopA3 peptides (Abnova, H00006326-Q01 (hNav1.2) and H00006335-Q01 (hNav1.7)). Again, no cross-reactive binding was observed.
Background: ELISA stands for enzyme-linked immunosorbent assay.

For assay [1], the target named is T2, hNav1.7-loopA3-llama Fc fusion (human).
T2 construct: also called hNav1.7-loopA3-llFc; loopA3-llamaFc chimera
T2 chain: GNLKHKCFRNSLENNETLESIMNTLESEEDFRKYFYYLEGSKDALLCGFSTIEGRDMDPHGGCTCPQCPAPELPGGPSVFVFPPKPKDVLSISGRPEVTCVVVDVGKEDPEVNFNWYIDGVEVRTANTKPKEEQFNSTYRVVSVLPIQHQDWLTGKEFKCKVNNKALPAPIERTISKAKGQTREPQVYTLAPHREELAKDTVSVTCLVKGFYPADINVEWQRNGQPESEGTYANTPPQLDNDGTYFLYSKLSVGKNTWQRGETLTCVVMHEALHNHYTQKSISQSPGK
In words: ELISA, coated loopA3-llama Fc 10 ng/well, mAb titrated. As for the experimental part: In a next experiment, the binding affinity of the loop-specific mAbs was determined and compared to reference mAbs as described in US2011/0135662 (for loop A3: UCB_932, for loopB1-C1-D1: UCB_983, for loopC3: UCB_1066; US2011/0135662). Affinities were determined using an ELISA with a loop-coating of 10 ng/well (loopA3-llama Fc), 20 ng/well (loop-B1-C1-D1-llama Fc) or 50 ng/well (loopC3-llama Fc). The remainder of the experimental setup was identical to abovementioned binding ELISAs. Most of the mAbs show pM affinity for the respective hNav1.7 extracellular loop they are binding. […] The EC₅₀ for the reference mAbs could not be determined (nd) from the ELISA data available because the binding was too weak.

In a further assay the target is T3, mouse A3-llamaFc (mouse, UniProt Q62205 269-319).
T3 construct: also called wild-type mouse A3 loop; not shown: linker and llama Fc of the A3-llamaFc construct
T3 sequence: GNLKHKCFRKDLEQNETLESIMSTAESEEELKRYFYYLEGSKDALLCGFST
In words: binding ELISA of mAb 8A7 on coated loop A3-llama Fc chimeras, OD450.

The target of assay [2] is T2, hNav1.7-loopA3-llama Fc fusion. Described as above.
The target in the next assay is T4, Mouse A3 mut1 (mouse-human chimera, UniProt Q62205 269-319).
T4 construct: also called mouse A3 mut1 loop; not shown: linker and llama Fc of the A3-llamaFc construct
The assay is described as above.

Assay [3] has as its target human Nav1.7 (full length) (human) (UniProt Q15858). In words: cell-based or functional assay.
Assay [4] concerns the target T5, GST-tagged hNav1.2-loopA3 (human, UniProt Q99250 273-362).
T5 construct: bought (Abnova); monomeric; also called hNav1.2 derived monomeric GST-tagged loopA3 peptide; Abnova H00006326-Q01; not shown: GST tag
In words: binding ELISA on coated GST-tagged hNav1.2 loop A3 peptide, OD620.
Text: as §1

T5 sequence (Q99250 273-362 limits assumed): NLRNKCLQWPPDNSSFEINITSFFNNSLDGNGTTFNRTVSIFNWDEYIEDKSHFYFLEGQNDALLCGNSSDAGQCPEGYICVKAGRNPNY

B1: 8A7 (antibody, human IgG1, V domains shown)
VH: EVQVQESGPGLVTPSQTLSLTCTVSGGSIKNNYYYWNWIRQPPGKGLEWMGAIAYSGSTYYSPSLQSRTSISRDTSKNQFTLQLSSVTPEDTAVYYCARVPSVFGLPYGGMNYWGKGTLVTVSS
VL: SYELTQSPSVTVALRQTAKITCGGSRIGSKSVQWYQQKPGQVPVLVIYADNRRPSRIPERFSGSNSGNTATLIISGAQAEDEADYYCQVWDSSAAVFGGGTHLTVLG
notes: also called mAb 8A7
Turning to B1, the binding result with hNav1.5-loopA3-llFc is given as “no binding (tested: about 66 ng/ml (axis as labelled))”; with mouse A3-llamaFc, “no binding (tested: about 33 nM)”; in the assay with Mouse A3 mut1, “no binding (tested: about 33 nM)”; in assay [4] it was “no binding (tested: about 130 nM)”. Also, the half-maximal effective concentration (EC50) in assay [1] was 0.23 nM. Further, the “EC50 (read off the curve)” value in assay [2] was ~0.08 nM. This molecule came in with a % inhibition of inward current following P02 voltage protocol, 10 µg/ml in assay [3] of 4%. In assay [3], this molecule showed a % inhibition of inward current following P02 voltage protocol, 25 µg/ml of 33.3%. This molecule came in with a % inhibition of inward current following P02 voltage protocol, 100 µg/ml in assay [3] of 47.6%.

The EC50 is the midpoint of the concentration-response curve. A lower EC50 goes with greater potency. The EC50 (read off the curve) is the concentration needed to bring the measured effect to its halfway point. Read a high EC50 (read off the curve) as a need for much substance.
